± gives the uncertainty stated by the source.
Test: self-splicing fitness, log relative to wild type (ln ratio); higher = more splicing; Tetrahymena group I intron in knt gene, E. coli kanamycin selection, DiMSum; sequences stand for … in CUCUCU…GGAGGGAAAAGUUAUCAGGCAUGCACCUGGUAGCUAGUCUUUAAACCAAUAGAUUGCAUCGGUUUAAAAGGCAAGACCGUCAAAUUGCGGGAAAGGGGUCAACAGCCGUUCAGUACCAAGUCUCAGGGGAAACUUUGAGAUGGCCUUGCAAAGGGUAUGGUAAUAAGCUGACGGACAUGGUCCUAACCACGCAGCCAAGUCCUAAGUCAACAGAUCUUCUGUUGAUAUGGAUGCAGUUCACAGACUAAAUGUCGGUCGGGGAAGAUGUAUUCUUCUCAUAAGAUAUAGUCGGACCUCUCCUUAAUGGGAGCUAGCGGAUGAAGUGAUGCAACACUGGAGCCGCUGGGAACUAAUUUGUAUGCGAAAGUAUAUUGAUUAGUUUUGGAGUACUCGUGGUCG
How it was run: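 A randomised library covering all eight P1ex-region intron nucleotides was built with the intron in the knt kanamycin-resistance gene on pET-22b(+) and held in E. coli BL21(DE3). Cells were grown overnight at 37°C or 30°C on LB agar, with or without 25 μg/mL kanamycin, plus 100 μg/mL carbenicillin, 50 μM IPTG and 0.2% rhamnose, and pooled colonies were amplicon-sequenced on an Illumina HiSeq 2500. DiMSum fitness is the error-weighted combination of wild-type-normalised replicate fold changes, kanamycin versus none.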

Row | Sequence | self-splicing fitness (ln) (30 °C) | self-splicing fitness (ln) (37 °C)
1 | CGAUAGCAAUAUUACGAAGG | -0.374 ± 0.11 | -0.55 ± 0.17
2 | CGAUAGCAAUAUUACGAAUU | -4.06 ± 0.3 | -2.41 ± 0.21
3 | CGAUAGCAAUAUUACGACAA | -3.4 ± 0.34 | -2.35 ± 0.27
4 | CGAUAGCAAUAUUACGACUC | -1.15 ± 0.15 | -1.38 ± 0.17
5 | CGAUAGCAAUAUUACGAGAG | -2.05 ± 0.2 | -2.66 ± 0.26
6 | CGAUAGCAAUAUUACGAUCU | -0.235 ± 0.11 | 0.177 ± 0.12
7 | CGAUAGCAAUAUUACGAUUU | -2.52 ± 0.14 | -0.871 ± 0.14
8 | CGAUAGCAAUAUUACGCAGA | -3.24 ± 0.21 | -1.75 ± 0.13
9 | CGAUAGCAAUAUUACGCAGG | -1.6 ± 0.092 | -1.25 ± 0.1
10 | CGAUAGCAAUAUUACGCAUC | -3.16 ± 0.31 | -1.94 ± 0.38
11 | CGAUAGCAAUAUUACGCGUA | -2.42 ± 0.41 | -2.14 ± 0.24
12 | CGAUAGCAAUAUUACGCGUC | – | -1.76 ± 0.47
13 | CGAUAGCAAUAUUACGCUCU | -0.961 ± 0.12 | 0.447 ± 0.12
14 | CGAUAGCAAUAUUACGCUGU | -3.12 ± 0.4 | -2.15 ± 0.31
15 | CGAUAGCAAUAUUACGCUUG | -2.88 ± 0.2 | -1.04 ± 0.16
16 | CGAUAGCAAUAUUACGGGCU | – | 0.128 ± 0.17
17 | CGAUAGCAAUAUUACGGGUG | -0.832 ± 0.069 | -0.736 ± 0.074
18 | CGAUAGCAAUAUUACGGUUU | -3.43 ± 0.15 | -0.7 ± 0.1
19 | CGAUAGCAAUAUUACGUGAA | -4.38 ± 0.22 | -2.16 ± 0.16
20 | CGAUAGCAAUAUUACGUGCC | -1.8 ± 0.15 | 0.00354 ± 0.14
21 | CGAUAGCAAUAUUACGUGGC | -2.8 ± 0.21 | -3.36 ± 0.46
22 | CGAUAGCAAUAUUACGUGUA | -2.23 ± 0.12 | -2.15 ± 0.2
23 | CGAUAGCAAUAUUACGUUCA | -0.0649 ± 0.082 | 0.251 ± 0.1
24 | CGAUAGCAAUAUUACGUUCC | -1.5 ± 0.25 | -1.51 ± 0.32

Row | Sequence | self-splicing fitness (ln) (30 °C) | self-splicing fitness (ln) (37 °C)
25 | CGAUAGCAAUAUUACGUUUG | -2.29 ± 0.081 | -0.812 ± 0.081
26 | CGCAAGCAAUAUUACGACCA | -0.724 ± 0.1 | -0.453 ± 0.12
27 | CGCAAGCAAUAUUACGACCG | -1.4 ± 0.11 | -0.441 ± 0.14
28 | CGCAAGCAAUAUUACGACGC | -3.59 ± 0.2 | -2.03 ± 0.16
29 | CGCAAGCAAUAUUACGACGU | -1.73 ± 0.068 | -0.28 ± 0.069
30 | CGCAAGCAAUAUUACGAGGU | -4.03 ± 0.23 | -1.82 ± 0.16
31 | CGCAAGCAAUAUUACGAUGC | – | -2.4 ± 0.32
32 | CGCAAGCAAUAUUACGCACG | -2.96 ± 0.23 | -1.24 ± 0.17
33 | CGCAAGCAAUAUUACGCACU | -0.441 ± 0.092 | -0.325 ± 0.11
34 | CGCAAGCAAUAUUACGCCAG | -1.01 ± 0.094 | -0.582 ± 0.13
35 | CGCAAGCAAUAUUACGCCAU | -3.9 ± 0.26 | -2.61 ± 0.19
36 | CGCAAGCAAUAUUACGCCCC | -1.49 ± 0.36 | -0.475 ± 0.38
37 | CGCAAGCAAUAUUACGCCUC | -3.64 ± 0.22 | -1.78 ± 0.15
38 | CGCAAGCAAUAUUACGCGCU | -3.78 ± 0.16 | -1.41 ± 0.12
39 | CGCAAGCAAUAUUACGCGGU | -2.75 ± 0.11 | -2.44 ± 0.17
40 | CGCAAGCAAUAUUACGCUAU | -3.23 ± 0.17 | -3.15 ± 0.22
41 | CGCAAGCAAUAUUACGCUGG | -3.06 ± 0.31 | -2.09 ± 0.25
42 | CGCAAGCAAUAUUACGGAGC | -2.49 ± 0.17 | -2.24 ± 0.24
43 | CGCAAGCAAUAUUACGGCCA | -1.14 ± 0.13 | -0.716 ± 0.12
44 | CGCAAGCAAUAUUACGGUAU | -4.65 ± 0.19 | -2.42 ± 0.13
45 | CGCAAGCAAUAUUACGGUGU | -3.42 ± 0.16 | -3.25 ± 0.23
46 | CGCAAGCAAUAUUACGUACC | -3.02 ± 0.17 | -1.8 ± 0.17
47 | CGCAAGCAAUAUUACGUCAG | -0.378 ± 0.053 | 0.1 ± 0.069
48 | CGCAAGCAAUAUUACGUCCA | -1.46 ± 0.089 | -0.939 ± 0.1
